Data: article doi:10.1101/699967 (bioRxiv, 2019)

Molecular target: HaloTag-Brd4-BD1_BD2-NanoLuc (aa 44-460) (human, UniProt O60885 44-460, HaloTag NanoBRET 618 fluorescent ligand on the HaloTag (experimental samples))
Assay: FRET or BRET

- EC50: 7.5 ± 3.5 µM
Binder: SGRGKGGKGLGKGGAKRHR (acetyl-lysine at 5, 8 and 16) [H4(1-19)K5/8/16-triacetyl histone peptide]
